From paper PMC10850359, “A mediator of OsbZIP46 deactivation and degradation negatively regulates seed dormancy in rice” come the findings set out here.

The target in this data set is T1, His::ABI5 (Oryza sativa (rice), UniProt Q8RZ35 1-388).
T1 sequence: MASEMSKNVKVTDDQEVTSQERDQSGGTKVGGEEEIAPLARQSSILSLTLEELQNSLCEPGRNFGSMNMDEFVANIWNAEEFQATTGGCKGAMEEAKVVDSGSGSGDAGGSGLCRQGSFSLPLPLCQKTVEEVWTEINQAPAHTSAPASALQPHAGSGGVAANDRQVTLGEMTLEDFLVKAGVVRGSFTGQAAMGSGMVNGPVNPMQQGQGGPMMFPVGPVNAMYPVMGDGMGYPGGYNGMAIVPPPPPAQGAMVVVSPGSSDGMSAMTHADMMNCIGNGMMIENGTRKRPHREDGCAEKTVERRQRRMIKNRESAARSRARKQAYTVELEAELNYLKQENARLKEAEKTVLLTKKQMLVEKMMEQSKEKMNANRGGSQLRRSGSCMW
Put plainly: EMSA; Beyotime Chemiluminescent EMSA Kit; 2 ug His::ABI5, 1 uL biotin probe (1 ng), 25 C, 20 min; unlabeled probe (1 ng) as competitor; buffer, salt and pH not stated. The following applies: protein: recombinant; tags: His (pET28a); chain copies: 2; label: biotin; blunt. A general note: In EMSA bound probe runs differently from free probe, usually more slowly.

B1: EMSA-EM1-bio (dsDNA)
DNA 1: CATAGCTTGCGCACGTACGTGTCGCGCTCCGGCGG
DNA 2: CCGCCGGAGCGCGACACGTACGTGCGCAAGCTATG
For B1, the binding result is “binds”.

B2: EMSA-LEA3-bio (dsDNA)
DNA 1: GATGACTTGGCATGCTCACGTGGCATTTTTTTTGGTCTAA
DNA 2: TTAGACCAAAAAAAATGCCACGTGAGCATGCCAAGTCATC
B2: the binding result is recorded as “binds”.
